# Paper PMC11380581 (Cell, 2024)
# Numbering of substitutions follows the chain as printed. Names and notes keep the numbering of the source.
# B1: NRC0-EEE-3XFlag (active NRC0) (natural protein)
# chain: MADAVVEFELLNEKQLELYHVDLLSGVKDEVESLHRELSLMKAFLKDSREKRSEYEYVRELVSQITIVAYEAEDIIDTFVTNAAMQKARSTVRRAFHVFDHSSKLRNVAKEIESIKVKVKEIYDKKMFGIQSLHGGESSHRSPPQKRVPMVEEENVVGFDDEARKISSRLTNGSEELEIISIVGMGGLGKTTLAKKVYTDSSIEFHFYNRAWIYVSQLYSRKEVFLGILDSLSLITDEMYKMNDEKLAGELFSHLRSKRYLVVIDDVWTMEAWDDLQMAFPKTATGSRILLTTRNTEVALHANPEGLPHHLRFLTHEESWELLSKKVFRKGICPLELEDIGLQIAKKCYGLPLAIVVVSGLLLKKEKTRDWWKKIANDVSSYVARDPKQCMDVLALSYKHLPDHLKVCFIYFGVFPEDFEIPVWKLLRLWTSEGFVQKMGQECLEDTAEEYLEDLVDRNLVLVAKKRASGRIKTCRIHDMLRDLSVKMGSEEKFLEVFKESAQNHSLSPISKYHRRLCVHSHFLDFITSRPFGPNVRSFLCFASEEMELLREHTSFLHEAFRLVRVLDLKYINFPRFPTEIVQLVHLRYIALSGNFRVLPASISKLWNLETLIVGTKSRELDIQVDIWKMSQFKHLYTSGLSCLRGPPAKTRKDNADPFVRRNIQTISTVLPDCCKENILARTPGLRKLGIRGKLATLVATNGDSSLFDNLAKLDNLETLKLLNDTFPLPPSQCQIPGLPQSYKFPPNLKKLTLSDTFLDWSHISTLGMLPNLEVLKLKDYAFKGTQWEPLDGGFRLLRVLHIGRTNLEHWNASGHHFPRLQQVFLKHCSSLNEIPFGLVEVSSLQNIELFWPTPAAAASARIIQQEKQEGDIKDNVFKLVIYPPDI
# B2: NRC4 L9E D478V (NLR Required for Cell Death 4 with the L9E and D478V mutations) (natural protein, N. benthamiana)
# chain: MADAVVNFEVENLLQLLTDNVKLIGSAKGELENLLKEVQHLKGFLDDAAKLPSDSEQWKVLVEEIQKTVHTAEDAVDKFVVQAKLHKEKNKMARILDVGHLATVRNLAAEVKGIHDQVKELRLNNQALQARPTLELPKKGSSETTQQGPALEDDEVVGFDEEANKVINRLVKESKDLDIIPVVGMPGLGKTTLARKIYKDPKLSYEFFGVHWVYVGQSYKIKDVFLNILKFFTRRTEDYQHEDVDALAKVIAGFINKGGRCLICLDDVWETKVIDYVKTIFPENEKGHRVMMTTRNKVLATYANSDPHDLKFLTPKESFELLVKRVFGKKPCPKDLVGHGESIAGKCGGVPLAVVVIAGALRGRPNTSDWIRVERNVVQHLYTNSEESCLKFVEMSYDHLPQEVQTCFLYCGVFPRGFDIPSWKVIRLWIAEGLIKPQESYTLEEIAEFYLNDLVNRNLVILQQKRSDGQIKTCRLHVMLHQFCKKEASNKWLFQEVSLTPDQAIPIEDPNKSRRLCIQPSNLKDFLSKKPSAEHVRSFYCFSSKEKQIRGLTPNDIKLIHKAFPLVRVLDVESLKFLFSKDFNQLFHLRYIAISGDFNAIPLTFGKFWNLQTLILNTSTSESTLDVKADIWNMLQLRHLHTNIPAKLQPPTATTSGKASCLQTLCMVAPESCEKEVLAKACHLKKLSIRGQMAAFLGAYKGGINNLVELKCLEQLKLLNDVLYMNKAPHLPQTFSQLVRTVKKLTLTNTRFAWSEADKLGQLESLEILKFKENAFAGDSWKPKMGFSALRVLWIERAEFETWEASEINFPVLRNLVLMSCDKLETVPFELANLSDLYEMRLENTSKAVKSAKAILESKTDKNIKFNLTIFPPEAGSKATQ
# B3: wild type NRC4, Flag-tagged (natural protein, N. benthamiana)
# chain: B2 chain with E9L, V478D
# B4: NRC4 L9E (natural protein, N. benthamiana)
# chain: B2 chain with V478D
# Tests used:
# [1] = target: Flag-tagged NRC4 co-expressed with HA-tagged Bs2 and AvrBs2 (Figure S6F) (N. benthamiana); experiment: native gel or EMSA
# [2] = target: NRC3-L21E-3xFlag (active NRC3); experiment: negative-stain EM
# negative-stain EM = target: the molecule itself; experiment: negative-stain EM
# cryo-EM structure [3] = target: the molecule itself; experiment: cryo-EM structure
# cryo-EM structure [4] = target: the molecule itself; experiment: cryo-EM structure; remark: listed apart in the source
# [5] = target: the molecule itself; experiment: native gel or EMSA + other: negative-stain EM
molecule,measurement,setting,value
Flag-tagged NRC4 co-expressed with HA-tagged Bs2 and AvrBs2 (Figure S6F) (from UniProt A0A5J6DCT7 1-881) (natural protein),stoichiometry N,[1],6
NRC3-L21E-3xFlag (active NRC3) (natural protein),stoichiometry N,[2],6
B1,stoichiometry N,negative-stain EM,6
B2,stoichiometry N,cryo-EM structure [3],12
same,stoichiometry N,cryo-EM structure [4],6
B3,stoichiometry N,[5],2
B4,stoichiometry N,negative-stain EM,6
